“Also recorded” adds a separate entry of the source.
Legend:
Mice [1] = experiment: Miles assay (induced vessel permeability); type: in vivo
Method: One of the problems with angiogenesis-dependent diseases is increased vessel permeability (due to high levels of VPF) which results in edema and loss of proteins. A decrease in vessel permeability is beneficial in those diseases. […] Briefly, a dye, Evans Blue (1% in PBS), was injected i.v. to anesthesized mice. After 10 min, human recombinant VEGF165 (50 ng/50 μl) was injected intradermally into the back skin. Leakage of protein-bound dye was detected as blue spots on the underside of the back skin surrounding the injection site. After 20 min mice were euthanized. Then, the skin was excised, left in formamide for 5 days to be extracted and the solution read at 620 nm. Putative angiogenesis inhibitors such as free and conjugated TNP-470 were injected daily 3 days (30 mg/kg/day) prior to the VEGF challenge. The same was repeated on tumor-bearing mice to evaluate the effect of angiogenesis inhibitors on tumor vessel permeability.

lungs = experiment: IL-2 induced pulmonary edema, relative weight of the lungs; type: in vivo; settings: 3 days treatment, edema induced with IL-2 i.m. (FIG. 12)
[2] = test system: Bovine adrenal capillary endothelial cells; experiment: BCE proliferation assay; type: cell-based; settings: challenged with bFGF, 72 h; data not shown
Method: Bovine adrenal capillary endothelial cells were seeded on gelatinized plates (15,000/well). Following 24 h incubation, cells were challenged with free and conjugated TNP-470, and bFGF (1 ng/ml) was added to the medium. Cells were counted after 72 h.

[3] = test system: Aortic arches from day-14 chick embryos; experiment: Chick aortic ring assay; type: cell-based
Method: Aortic arches were dissected from day-14 chick embryos and cut into cross-sectional fragments, everted to expose the endothelium, and explanted in Matrigel. When cultured in serum-free MCDB-131 medium, endothelial cells outgrow and three-dimensional vascular channel formation occurred within […]. Free and conjugated TNP-470 were added to the culture.

[4] = test system: A2058 human melanoma-bearing mice; experiment: Miles assay on tumor-bearing mice (tumor vessel permeability); type: in vivo; settings: 30 mg/kg/day for three days
Method: One of the problems with angiogenesis-dependent diseases is increased vessel permeability (due to high levels of VPF) which results in edema and loss of proteins. A decrease in vessel permeability is beneficial in those diseases. We have found, using the Miles assay ([…], et al., Cancer Res, 56:172-181 (1996)), that free and bound TNP-470 block permeability. Briefly, a dye, Evans Blue (1% in PBS), was injected i.v. to anesthesized mice. After 10 min, human recombinant VEGF165 (50 ng/50 μl) was injected intradermally into the back skin. Leakage of protein-bound dye was detected as blue spots on the underside of the back skin surrounding the injection site. After 20 min mice were euthanized. Then, the skin was excised, left in formamide for 5 days to be extracted and the solution read at 620 nm. Putative angiogenesis inhibitors such as free and conjugated TNP-470 were injected daily 3 days (30 mg/kg/day) prior to the VEGF challenge. The same was repeated on tumor-bearing mice to evaluate the effect of angiogenesis inhibitors on tumor vessel permeability.

[5] = test system: Bovine capillary endothelial cells (BCE); experiment: Immunostaining of tight junction proteins (β-catenin, occludin, ZO-1); type: cell-based
Method: Bovine capillary endothelial cells (BCE) were cultured in the presence of 0.2, 0.5 and 2 μg/ml human endostatin for three days. The cells were fixed and immunostained with anti-β-catenin, occludin, and ZO-1 antibodies (Zymed Laboratories, CA). The staining was developed using FITC-conjugated secondary antibodies and visualized under fluorescent microscopy. Immunostaining for β-catenin marked the cell borders and was more intense when two cells contacted each other. […] There was no difference in β-catenin staining between 0.5 and 2.0 μg/ml endostatin. […] Similar results were obtained with ZO-1 immunostaining. […] This is the first documentation of the effects of endostatin on tight junctions that may explain, in part, the mechanism of its antiangiogenic activities. Similar experiments were performed in which BCE were incubated in the presence and absence of 0.5 μg/ml endostatin for 3 days followed by stimulation with PAF for 20 minutes. The cells were fixed and immunostained with anti-α-catenin, occludin, and ZO-1 antibodies (Zymed Laboratories, CA), as described above.

mice (SCID) = experiment: Duration of exposure: Alzet pump, skin vessel permeability with Evans Blue; type: in vivo
Method: In order to test if continuous exposure to the antiangiogenic factor (endostatin) is required to repress blood vessel permeability, mice (SCID) were anesthetized and “Alzet” pumps loaded with the antiangiogenic factor or saline were implanted intraperitoneally. The pumps release 1 μl the antiangiogenic factor per hour. Skin vessel permeability using Evans Blue dye was performed as described above. Saline and the antiangiogenic factor treated mice were examined 2, 3 and 4 days after pump implantation, as described above (FIG. 3). […] In both groups, PAF injection induced higher vessel permeability than saline injection. […] However, in both groups PAF injection induced higher vessel permeability than saline injection. […] Since the tumor vessels are continuously permeabilized and plasma proteins contained within the tumor support its vascularization the anti-permeability effect of the antiangiogenic factor offers a possible mechanism for its anti-tumor activity.

Humans = experiment: Histamine-induced wheal and flare test in skin; type: in vivo; settings: intradermal histamine
Method: Antiangiogenic treatment has entered into clinical trials recently. Molecules that are tested in phase 1 and 2 clinical trials include endostatin, angiostatin, TNP-470, thalidomide, anti-VEGF antibodies, PTK787, SU-5416, SU-6668 and others. […] Mice that received endostatin for several days had lower diffusion of Evans blue from the skin capillaries in response to intradermal VEGF and PAF injection compared with normal mice. The existing test of histamine-induced wheal and flare in skin can be used in order to test bioactivity of endostatin and other antiangiogenic factors. Intradermal injection of histamine leads to the formation of local adema ([…]) due to blood vessel hyperpermiability. […] This test will serve as an early surrogate marker for the bioactivity of endostatin and other antiangiogenic factors and help to determine the treatment's efficiency in individual patients.

Mice [6] = experiment: Swelling of lung tissue in mice injected with micro-encapsulated VEGF-producing cells; type: in vivo; settings: VEGF producing cells together with endostatin producing cells, 5 days
Excerpt: Dilation of the lung tissue may result in lung dysfunction and development of pulmonary hypertension. Mice injected with micro-encapsulated cells producing VEGF (approximately 0.5×10^6 cells per mouse) developed thickened lung parenchyma 5 days after injection. At a higher magnification we observed generation of several cell layers between the alveoli compared with one layer of cells in mice injected with micro-encapsulated control cells or with micro-encapsulated cells producing endostatin (Endost). […] Moreover, treatment with endostatin reduced the number of cell layers between the alveoli and the lungs of mice that were treated with endostatin appeared similar to control mice. Therefore, endostatin appears to block the swelling of lung tissue and may be used for treatment of pulmonary hypertension.

[7] = test system: Bovine capillary endothelial cells (BCE); experiment: In vitro diffusion of FITC-dextran through endothelial cell monolayer (Transwells); type: cell-based
Method: The effects of the antiangiogenic factor (endostatin) on skin vessel permeability in vivo were tested in an in vitro diffusion model designed to mimic blood vessel permeability. Bovine capillary endothelial cells (BCE) were seeded in collagen coated inserts of “Transwells” and grown to confluence. The antiangiogenic factor was added every 24 hours. Four days later the inserts were washed with BCE culture medium and the following tracers and permeability regulators were added to the inserts. Half of the inserts received 5 mg/ml FITC-labeled dextran 10 kDa and the other half received 5 mg/ml FITC-labeled dextran 70 kDa. In addition, some inserts received 50 ng/ml VEGF165 or 100 nM PAF. Control inserts received BCE culture medium with fluorescent tracers only. The fluorescence in the lower wells was measured after 10, 20, 30, 45 and 60 minutes by transferring the inserts into new wells.
In order to follow the kinetic of the diffusion process, the flow of the tracer was calculated as fluorescent counts per minute (FIGS. 5 and 6). […] In contrast, the flow in control cells was constant and was lower than that observed in PAF and VEGF165-treated cells.

Nude mice = experiment: Evans Blue dye extravasation in skin after intradermal PAF; type: in vivo
Method: (§1) The antiangiogenic factor (endostatin) was injected intraperitoneally to FVB/NJ mice for 4 days. Immediately after the last injection, mice were anasthesized and received intravenous injection of 100 μl Evans Blue dye (1% in PBS). Subsequently, different amounts of VEGF165, VEGF121 or saline were injected intradermaly. After 20 minutes, mice were sacrificed and skin flap from the back was removed and photographed. Skin samples from the injection sites were excised and incubated in formamide for 5 days in order to extract the dye and O.D. was measured at 620 nm. […] Quantitative analysis of Evans Blue dye extravasation (FIG. 1) confirmed the lower skin capillary permeability of the antiangiogenic factor-treated mice and indicated the weak permeability-inducing effect of VEGF in these mice.
In order to test if the effects of the antiangiogenic factor (endostatin) on vascular permeability is VEGF-specific, we have tested the effects of intradermal injection of platelet-activating factor (PAF) in Nude mice that were previously injected with the antiangiogenic factor and in control mice, as described above. […] Quantitative analysis of Evans Blue dye extravasation (FIG. 2) confirmed the lower skin capillary permeability of the antiangiogenic factor-treated mice compared with control and the lack of PAF-induced hyperpermeability in these mice. […]

FVB/NJ mice = experiment: Evans Blue dye extravasation in skin after intradermal VEGF; type: in vivo
Method: as §1

## CO[C@@H]1[C@H](OC(=O)NC(=O)CCl)CC[C@]2(CO2)[C@H]1[C@@]1(C)O[C@@H]1CC=C(C)C [TNP-470]
Mice [1]; Miles assay, compared to control (FIGS. 8A-8E)
  VEGF, PAF and histamine-induced vascular leakage: prevents
lungs
  pulmonary edema (relative weight of the lungs): reduces pulmonary edema
[2]
  BCE cell growth: inhibited
[3]
  concentration that showed efficacy (reduced number and length of vascular sprouts): 50 pg/mL
[4]
  tumor vessel permeability: decreased

## O=C1CCC(N2C(=O)c3ccccc3C2=O)C(=O)N1 (centres unmarked) [Thalidomide]
Mice [1]; FIGS. 9A-9D
  vessel permeability: no effect

B1: endostatin (protein, UniProt P39060 1572-1754, looked up)
Endostatin: HSHRDFQPVLHLVALNSPLSGGMRGIRGADFQCFQQARAVGLAGTFRAFLSSRLQDLYSIVRRADRAAVPIVNLKDELLFPSWEALFSGSEGPLKPGARIFSFDGKDVLRHPTWPQKSVWHGSDPNGRRLTESYCETWRTEAPSATGQASSLLGGRLLGQSAASCHHAYIVLCIENSFMTASK
modifications: Endostatin
notes: antiangiogenic factor; human endostatin used on BCE cells
[5]; 0.5 μg/ml for 3 days, then PAF for 20 minutes
  PAF-induced reduction of staining intensity of β-catenin, occludin and ZO-1: not in endostatin-treated cells
[5]; 0.2-2.0 μg/ml, three days
  ZO-1 immunostaining: Cells boundaries were only visible in the presence
[5]; three days
  β-catenin staining, 0.5 versus 2.0 μg/ml: no difference
Mice (SCID); Alzet pump intraperitoneally
  treatment time required to reduce skin vessel permeability: at least 3 days
Mice (SCID); day two after pump implantation
  blood vessel permeability in response to PAF, saline vs treated mice: no significant difference
Mice (SCID); days three and four, saline and PAF injections
  vessel permeability in saline treated mice compared with treated mice: significantly higher vessel permeability than in the antiangiogenic factor treated mice
Humans
  histamine-induced zone of edema: reduced zone of edema
Mice [6]
  accumulation of extracellular matrix in lung tissue: no accumulation of extracellular matrix
  cell layers between the alveoli: fewer cell layers
[7]; 10 kDa and 70 kDa dextrans, vs control cells
  flow of the tracer (fluorescent counts per minute): significant reduced flow; also recorded: lower than that of control cells
[7]; 60 minutes period
  course of tracer flow over time: constant flow
[7]; 4 days pre-treatment, vs control, VEGF165-treated and PAF-treated cells, 10 kDa and 70 kDa dextran
  sum of fluorescent count over 60 minutes: significantly lower fluorescent counts
[7]; pre-treated BCE cells
  reduction in fluorescent counts, 70 kDa compared with 10 kDa dextran: more pronounced in the diffusion of 70 kDa dextran
Nude mice; intradermal PAF
  PAF-induced vascular permeability: repressed
Nude mice; vs control
  vascular permeability (skin flaps, Evans Blue): inhibits vascular permeability
FVB/NJ mice; injected intraperitoneally for 4 days, vs control
  Evans Blue dye leakage (skin capillary permeability): overall lower dye leakage than the control
FVB/NJ mice; intradermal VEGF165 or VEGF121, 4 days treatment
  induction of hyperpermeability by VEGF injection: minor induction of hyperpermeability

Source: patent publication US20050112063A1, “Methods for inhibiting vascular permeability” (priority 2002, published 2005)
